Key:
Details in all cases: protein: recombinant; single strand
[1] = target: T1, tau 2N4R full-length monomer, WT (UniProt P10636-8 1-441); assay: BLI; apparent Kd, 2:1 model; kon 1.7e3 M-1 s-1, koff 4.2e-4 s-1; mean of 3; BLI (Octet, AR2G sensors, tau immobilized), nucleic acid 0.13-41 uM; buffer, salt, pH and temperature not given in the material
[2] = target: T1, tau 2N4R full-length monomer, WT; assay: BLI; apparent Kd, 2:1 model; kon 1.0e4 M-1 s-1, koff 1.4e-4 s-1; mean of 3; BLI (Octet, AR2G sensors, tau immobilized), nucleic acid 0.13-41 uM; buffer, salt, pH and temperature not given in the material
[3] = target: T1, tau 2N4R full-length monomer, WT; assay: BLI; apparent Kd, 2:1 model; kon 2.8e4 M-1 s-1, koff 3.4e-4 s-1; mean of 3; BLI (Octet, AR2G sensors, tau immobilized), nucleic acid 0.13-41 uM; buffer, salt, pH and temperature not given in the material

T1 sequence (P10636 other isoform, or with tags, fused parts or gaps): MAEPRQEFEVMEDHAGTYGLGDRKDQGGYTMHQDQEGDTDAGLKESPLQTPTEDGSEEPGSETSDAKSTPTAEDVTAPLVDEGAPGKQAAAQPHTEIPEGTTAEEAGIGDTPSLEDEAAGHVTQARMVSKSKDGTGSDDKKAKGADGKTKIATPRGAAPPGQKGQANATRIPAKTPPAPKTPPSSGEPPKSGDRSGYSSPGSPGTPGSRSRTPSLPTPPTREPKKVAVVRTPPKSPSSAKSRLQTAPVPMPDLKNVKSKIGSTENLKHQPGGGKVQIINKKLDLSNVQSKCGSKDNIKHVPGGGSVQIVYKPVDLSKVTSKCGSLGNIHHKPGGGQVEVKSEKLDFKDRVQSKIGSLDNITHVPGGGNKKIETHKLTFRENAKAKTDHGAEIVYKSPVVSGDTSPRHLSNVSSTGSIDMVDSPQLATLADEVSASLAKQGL

Binder: UUUUUUUUUUUUUUUUUUUUUUUUUUUUUUUUUUUUUUUU (ssRNA) [PolyU 40-mer RNA]
- Kd [1]: 254 nM

Binder: AAAAAAAAAAAAAAAAAAAAAAAAAAAAAAAAAAAAAAAA (ssRNA) [PolyA 40-mer RNA]
- Kd [2]: 20 nM

Binder: GTTAAGTCCCGAACTAGATGTGACCTAACGGTAAGAGAAT (ssDNA) [ssDNA Seq1 (random 40-mer)]
- Kd [3]: 12 nM
